The target of one data set is Cys61 (UniProt position 61, KEIAGCENRVW). The conditions noted are these: not stated (reduced thiol implied; discussed for free CsdE); cited from earlier work.
Data set [1] has as its target T1, Escherichia coli CsdE (Escherichia coli), P0AGF2.
T1 chain: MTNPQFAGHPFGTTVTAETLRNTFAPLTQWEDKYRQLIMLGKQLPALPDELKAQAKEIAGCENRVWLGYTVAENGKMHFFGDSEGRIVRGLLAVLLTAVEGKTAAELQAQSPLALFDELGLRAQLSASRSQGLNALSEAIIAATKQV
Kind of data set: crystal structure; native CsdE at 40 mg/ml in 10 mM Tris-HCl pH 8, 2 mM 2-mercaptoethanol; crystallised in 0.1 M sodium citrate pH 6.5, 20% (w/v) PEG-MME 2000 at 297 K; two monomers in the asymmetric unit joined by a Cys61-Cys61 disulfide bridge; phased by Se-SAD on SeMet crystals. Particulars: remark: other sources report otherwise.

This is an account of results in paper PMC5646864.

A word on the pKa: it is the pH at which an ionisable group is half protonated. As for “Sulfur acceptor protein CsdE (YgdK) (Escherichia coli)”, the pKa in the data set with Cys61 is 6.5.

B1: Escherichia coli CsdE, P0AGF2 1-147 (natural protein)
chain: T1 chain
Broadly, the stoichiometry N is the number of molecules, sites or subunits per partner or assembly. B1: in data set [1], the stoichiometry N is 2.
